Data reported in patent publication US20260139035A1.

Biological target: spike proteins of SARS-CoV-2 variants (614G, Alpha, Beta, Gamma, Delta, Kappa, Lambda, Mu, BA.1, BA.)
Assay: cell-based or functional assay

B1: 3-1 antibody (antibody, V domains shown)
VH: EVQLVQSGAEVKKPGESLKISCKGSGYIFTNYWIGWVRQMPGKGLEWMGIINPRDSDTRYSPSFQGQVTISTDKSINTAYLQWSSLKASDTAMYYCARQQGGFGDLGAYNWFDPWGQGTLVTVSS
VL: not shown
With B1 the IC50, pseudovirus neutralization was less than 0.25 µg/mL.
